# Laboratory results published in the nanobody polyreactivity screen of Harvey et al. (2022).
# Experiment: yeast display, Sf9 membrane polyspecificity reagent, FACS + sequencing; frameworks hold sequencing errors
# Summary of the method: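 In a synthetic yeast display library (Saccharomyces cerevisiae BJ5465), nanobody expression was induced with galactose for 36–48 hours. FACS gates were set low and high (top ~1%) using anti-HA fluorescence for expression and streptavidin fluorescence for binding of the Sf9 membrane reagent. Each polyreactivity label is drawn from the gate of origin.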
row,Sequence,polyreactivity (PSR sort gate)
1,QVQLVESGGGLVQAGCSLRLICAASGSTFDPNAMGWYRQSPGKERQLVAVIDSGDGTTYYADSVKGRFTISRDNAKNTVYLQMNSLKPEDTAVYYCAVDESTSYYDDHEDYWGQGTQVTVSS,low polyreactivity
2,QVQLVESGGGLVQAGCSLRLSCAASGFIFATNTMGWYRHSPGKERELVAASSTYYAESVKGRFTISRDNAKNTVYLQMNSLKQEDTAVYYCNAYRDSYIGFVDWAGEYWGQGTQVTVSS,low polyreactivity
3,QVQLVESGGGLVQAGCSLRLSCAASGFIFVFNAMGWYRQAPGKERELVAAINGGDITNYADSVKGRFTISRDNAKNTVYLQMNSMKPEDTAVYYCNADGYYFLISNANTLGYWGQGTQVNVSS,low polyreactivity
4,QVQLVESGGGLVQAGCSLRLSCAASGFILTYYLMGWYRQAPGKERELVAAILSGGNTYYADSVKGRFTISRDNAQNTVYLQMNCLKPEDTAVYYFNARPRWSYGLDYWGQGTQVTVSS,high polyreactivity
5,QVQLVESGGGLVQAGCSLRLSCAASGFTFDQYAMGWYRQAPGKEREFVAGNSYGRGRTYYADSVKGRFTISRDNAKNNFYLQMNSVKPEVTAVYYCAADGVYRYNYPYLYTYDYWGQGTQVTVSS,low polyreactivity
6,QVQLVESGGGLVQAGCSLRLSCAASGLIFGRNVMGWYRQAPGKERELVAAISWSGGRTYYADSVKGRFTISRDNAKNTVYLQMNSLKPEDTAVYYCATDRSTRTYRSPYDYWGQGTQVTVSS,high polyreactivity
7,QVQLVESGGGLVQAGCSLRLSCAASGRIFDFYAMGWYRHAPGKERELVAAISWDGSDTYYADSVKGRFTISRDNAKNTVYLQMNSLKPEDTAVYYCAADYYSPSGHEYNYWGQGTQVTVSS,high polyreactivity
8,QVQLVESGGGLVQAGCSLRLSCAASGRIFGQYAMGWYRQAPGKEREFVAGISTTGGSTYYADSVKGRFTISRDNAKNTVYLQMNSLKPEDTAVYYFAVRINWSRWYHYYTYNYWGQGTQVTVSS,high polyreactivity
9,QVQLVESGGGLVQAGCSLRLSCAASGRIFSFYAMGWYRQAPGKERELVITSGGDTNYADSVKGRFTISRDNAKNTVYLQLNSLKPEDTAVYYCNAEGDRSQPYNFDYWGQGTQVTVSS,low polyreactivity
10,QVQLVESGGGLVQAGCSLRLSCAASGRIFSFYVMGWYRQAPGKERELVAAISLSGGSTYYADSVKGRFTISRDNAKNTVYLQMNSLKPEDTAVYYCNAVLYARLRDRWARYDYWGQGTQVTVSS,high polyreactivity
11,QVQLVESGGGLVQAGCSLRLSCAASGRIFSYNAMGWYRPAPAKERELVAAISSDGSTYYADSVKGRFTISRDNAKNTVYLQMNSLKPEDTAVYYCAAYPRVNGNILSTGDYWGQGTQVTVSS,low polyreactivity
12,QVQLVESGGGLVQAGCSLRLSCAASGRIFTSYAMGWYRQAPGKERELVAAISRSGARTYYADTVKGRFTISRDNAKNTVYLQMNSLKPEDTAVYDCAAVTVAGYDYWGQGTQVTVSS,high polyreactivity
13,QVQLVESGGGLVQAGCSLRLSCAASGRIFVEYAMGWYRQAPGKVTELVAAINSGGSTNYADSVKGRFTISRDNAKNTVYLQMNSLKPEDTAVYYCNIDTLVYGYVQDYEYWGQGSQVTVSS,low polyreactivity
14,QVQLVESGGGLVQAGCSLRLSCAASGRILFGYAMGWYRQAPGKERELVADITSTGSTNYADSVKGRFTISRDNAKNTVYLQMNSLKPEDTAVYYCNARRESYYQRYRVDYWGQGTQVTVSS,low polyreactivity
15,QVQLVESGGGLVQAGCSLRLSCAASGRNFVHYAMGWYRQAPGKERDLVAAISWSGGNTYYADSVKGRFTISRDNAKNTVYLQMNSLKPEDTAVYYCARAPYYVASGHRRVLRPTYEYWGQGTQVTVSS,low polyreactivity
16,QVQLVESGGGLVQAGCSLRLSCAASGRTFARYVMGWYRQAPGKEREFVATISTSGTSTYYADSVKGRFTISRDNAKNTVYLQMNSLKPAETAVYYCAARRTTRGYDYWGQGTQVTVSS,high polyreactivity
